# Laboratory results published in US10174358.
# Molecular target: Cy5-EF-Tu E348C (AV) C137A,C255V,E348C (Escherichia coli) (UniProt P0CE48)
# Details: native tRNA modifications; 3'-aminoacylated with Phe; Cy3 on acp3U47; FRET titration; GTP form, 100 uM GTP, 8 mM Mg, 25 C
substance,measurement,value
Phe-tRNAPhe(Cy3),Kd,11 nM
